Patent publication US20040146519A1 (published 2004)
Like-named read-outs stand apart in the source and are kept apart here.

Legend:
HLA-B*3501 = HLA-B*3501 (human); test: inhibition of 125I probe peptide, purified HLA
HLA-B*0702 = HLA-B*0702 (human); test: inhibition of 125I probe peptide, purified HLA
HLA-B*5401 = HLA-B*5401 (human); test: inhibition of 125I probe peptide, purified HLA
HLA-B*5301 = HLA-B*5301 (human); test: inhibition of 125I probe peptide, purified HLA
HLA-A*0203 [1] = target: HLA-A*0203 (human); test: competition with 125I probe peptide for purified HLA
HLA-A*6802 = HLA-A*6802 (human); test: as above
HLA-B*5101 = HLA-B*5101 (human); test: inhibition of 125I probe peptide, purified HLA
HLA-A*0201 [2] = target: HLA-A*0201 (human); test: competition with 125I probe peptide for purified HLA
HLA-A*0203 [3] = target: HLA-A*0203 (human); test: inhibition of 125I probe peptide, purified HLA
HLA-A*0201 [4] = target: HLA-A*0201 (human); test: inhibition of 125I probe peptide, purified HLA
HLA-A*0202 [5] = target: HLA-A*0202 (human); test: competition with 125I probe peptide for purified HLA
HLA-A*0206 = HLA-A*0206 (human); test: as above
HLA-A*1101 = HLA-A*1101 (human); test: as above
HLA-A*6801 = HLA-A*6801 (human); test: as above
HLA-A*3101 = HLA-A*3101 (human); test: as above
HLA-A*0301 = HLA-A*0301 (human); test: as above
HLA-A*3301 = HLA-A*3301 (human); test: as above
HLA-DRB1*0301 [6] = target: HLA-DRB1*0301 (human); test: competition with 125I probe peptide, purified HLA
HLA-DRB1*0301 [7] = target: HLA-DRB1*0301 (human); test: competition with 125I probe peptide, purified HLA; remark: listed apart in the source
HLA-DRB1*1302 = HLA-DRB1*1302 (human); test: competition with 125I probe peptide, purified HLA
HLA-DRB1*0701 = HLA-DRB1*0701 (human); test: inhibition of 125I probe peptide, purified HLA
HLA-A*0202 [8] = target: HLA-A*0202 (human); test: inhibition of 125I probe peptide, purified HLA

Row | Binder | IC50 (HLA-B*3501) [nM] | IC50 (HLA-B*0702) [nM] | IC50 (HLA-B*5401) [nM] | IC50 (HLA-B*5301) [nM] | IC50 (HLA-B*5101) [nM] | other results
1 | FPWQRLLLTI [CEA.13.F1I10] | 2120 | 290 | 4.2 | 78 |  | 
2 | FPGLSAGATI [CEA.680.F1, 10 AA] |  | 212 | 105 | 1480 |  | 
3 | ALVGIMIGV [CEA.687L2] |  |  |  |  |  | IC50 (HLA-A*0203 [1]): 31 nM; IC50 (HLA-A*6802): 102 nM
4 | FPHRWCIPI [CEA.7.F1I9] | 257 | 2.5 | 1.9 | 135 |  | 
5 | FPNNNGTI [CEA.646.F1] |  | 275 | 313 | 9300 | 19 | 
6 | FPPHRWCIPI [CEA.6.F1I10] |  |  |  | 8460 | 423 | 
7 | ILIGVLVGV [CEA.691L2] |  |  |  |  |  | IC50 (HLA-A*0203 [1]): 3.2 nM; IC50 (HLA-A*0201 [2]): 22 nM
8 | FPGVNLSL [CEA.428.F1] | 277 | 19 | 115 | 95 |  | 
9 | ILIGVLVGV [CEA.691.L2] |  |  |  |  |  | IC50 (HLA-A*0203 [3]): 3.2 nM; IC50 (HLA-A*0201 [4]): 22 nM
10 | FPWQRLLL [CEA.13.F1, 8 AA] | 1760 |  | 71 | 443 | 229 | 
11 | GIMIGVLVGV [CEA.690] |  |  |  |  |  | IC50 (HLA-A*0203 [1]): 31 nM; IC50 (HLA-A*6802): 500 nM; IC50 (HLA-A*0202 [5]): 205 nM; IC50 (HLA-A*0201 [2]): 64 nM; IC50 (HLA-A*0206): 142 nM
12 | FPQQHTQI [CEA.632.F1, 8 AA] |  | 220 |  | 7750 |  | 
13 | FPQQHTQVLF [CEA.632.F1, 10 AA] | 51 |  | 556 |  |  | 
14 | FPQQHTQVLI [CEA.632.F1I10] | 809 | 134 | 278 |  |  | 
15 | FPDAPTISPI [CEA.236.F1I10] | 1330 | 183 | 278 | 1020 |  | 
16 | FPDAPTISPL [CEA.236.F1] | 327 |  | 714 | 1940 | 290 | 
17 | FPQHLFGYSI [CEA.58.F1I10] | 900 | 229 |  |  | 204 | 
18 | RVLTLFNVTK [CEA.554.V42K10] |  |  |  |  |  | IC50 (HLA-A*1101): 32 nM; IC50 (HLA-A*6801): 2350 nM; IC50 (HLA-A*3101): 234 nM

Row | Binder | IC50 (HLA-B*3501) [nM] | IC50 (HLA-B*0702) [nM] | IC50 (HLA-B*5401) [nM] | IC50 (HLA-B*5301) [nM] | IC50 (HLA-B*5101) [nM] | other results
19 | TVSPSYTYYR [CEA.419.V2] |  |  |  |  |  | IC50 (HLA-A*0301): 2340 nM; IC50 (HLA-A*1101): 3000 nM; IC50 (HLA-A*3301): 264 nM
20 | TVSPSYTYYK [CEA.419.V2K10] |  |  |  |  |  | IC50 (HLA-A*1101): 43 nM; IC50 (HLA-A*6801): 6.7 nM; IC50 (HLA-A*3101): 3670 nM
21 | QLIGYVIGV [CEA.78L2V9] |  |  |  |  |  | IC50 (HLA-A*0202 [5]): 5.9 nM
22 | FPAYSGREI [CEA.92.F1] | 7200 | 2.1 |  | 664 | 183 | 
23 | FPQQHTQVI [CEA.632.F1I9] | 139 | 3.4 | 1.7 |  |  | 
24 | FPQQHTQVL [CEA.632.F1, 9 AA] |  | 0.9 |  | 93 | 183 | 
25 | RLQLSNDNRTLTLLS [CEA.368] |  |  |  |  |  | IC50 (HLA-DRB1*0301 [6]): 938 nM; IC50 (HLA-DRB1*0301 [7]): 938 nM; IC50 (HLA-DRB1*1302): 729 nM
26 | FPQHLFGI [CEA.58.F1, 8 AA] |  | 393 | 0.4 | 1070 | 212 | 
27 | RVLTLLSVTK [CEA.376.V2K10] |  |  |  |  |  | IC50 (HLA-A*6801): 5710 nM; IC50 (HLA-A*3101): 164 nM
28 | LWWVNNQSLPVSPRL [CEA.177] |  |  |  |  |  | IC50 (HLA-DRB1*0701): 3050 nM
29 | FPSAPPHRI [CEA.3.F1I9] | 3600 |  | 14 | 258 | 15 | 
30 | YLCGIQNSV [CEA.569L2] |  |  |  |  |  | IC50 (HLA-A*6802): 3480 nM; IC50 (HLA-A*0206): 31 nM
31 | FPVSPRLQI [CEA.363.F1I9] | 5540 |  |  | 216 |  | 
32 | FPVSPRLQL [CEA.363.F1] | 600 | 0.7 |  | 310 | 82 | 
33 | QLIGYVIGV [CEA.78.L2V9] |  |  |  |  |  | IC50 (HLA-A*0202 [8]): 5.9 nM
34 | IMIGVLVGVA [CEA.691 (10-mer IMIGVLVGVA)] |  |  |  |  |  | IC50 (HLA-A*6802): 1510 nM
35 | FPGLSAGI [CEA.680.F1I8] | 758 |  |  | 332 | 9 | 
